Data taken from paper PMC12077210, “Di-HAMP domains of a cytoplasmic chemoreceptor modulate nucleoid array formation and downstream signaling” (mBio, 2024).
One block for each molecule: values may come before it.

Legend:
[1] = target: FrzCD^ΔH2 (Myxococcus xanthus) (UniProt P43500); assay: SEC-MALS; no DNA; Superdex 200 Increase 10/300, 50 mM NaCl, 50 mM Tris pH 8.0, about 25°C; 100 μL injected at 45 and 150 μM (FrzCD), 70 and 200 μM (ΔMA), 25 μM (ΔH1ΔH2), 25 and 65 μM (ΔH2), 25 μM (ΔH1)
[2] = target: FrzCD^ΔMA (Myxococcus xanthus) (UniProt P43500); assay: SEC-MALS; with 35 bp DNA in the injected sample: 70 μM FrzCD with 30 μM DNA; 200 μM FrzCD with 100 μM DNA; 200 μM ΔMA with 100 μM DNA; 100 μM ΔH2 with 50 μM DNA
[3] = target: FrzCD^ΔMA (Myxococcus xanthus) (UniProt P43500); assay: SEC-MALS; no DNA; Superdex 200 Increase 10/300, 50 mM NaCl, 50 mM Tris pH 8.0, about 25°C; 100 μL injected at 45 and 150 μM (FrzCD), 70 and 200 μM (ΔMA), 25 μM (ΔH1ΔH2), 25 and 65 μM (ΔH2), 25 μM (ΔH1)
[4] = target: FrzCD^ΔH1ΔH2 (Myxococcus xanthus) (UniProt P43500); assay: as above
[5] = target: the molecule itself; assay: as above
[6] = target: T1, FrzCD (EMSA/SEC-MALS) (Myxococcus xanthus, UniProt P43500 1-417); assay: SEC-MALS; high-order oligomers at 200 uM protein, 100 uM DNA; EMSA: 50 mM Tris pH 7.4, 50 mM NaCl, 1 mM DTT, 10% glycerol, 25 C, 30 min, 0.5-2 uM DNA; BLI: 10 mM Tris pH 7.4, 150 mM NaCl, 25 C, 5 nM DNA; details: protein: recombinant; tags: C-terminal His6 (pHis17); chain copies: 2; blunt
T1 sequence: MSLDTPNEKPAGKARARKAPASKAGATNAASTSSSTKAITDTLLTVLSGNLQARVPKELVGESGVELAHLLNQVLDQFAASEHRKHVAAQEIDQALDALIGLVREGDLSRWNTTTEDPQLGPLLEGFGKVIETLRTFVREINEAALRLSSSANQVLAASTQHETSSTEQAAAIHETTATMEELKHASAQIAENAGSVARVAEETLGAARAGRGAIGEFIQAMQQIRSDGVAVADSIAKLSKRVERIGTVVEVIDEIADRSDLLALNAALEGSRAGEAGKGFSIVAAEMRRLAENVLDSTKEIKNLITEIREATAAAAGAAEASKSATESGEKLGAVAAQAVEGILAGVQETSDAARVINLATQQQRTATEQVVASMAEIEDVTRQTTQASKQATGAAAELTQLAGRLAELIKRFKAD

[7] = target: T2, FrzCDΔH1 (EMSA) (Myxococcus xanthus, UniProt P43500 1-417, del32-83); assay: EMSA; EMSA: 50 mM Tris pH 7.4, 50 mM NaCl, 1 mM DTT, 10% glycerol, 25 C, 30 min, 0.5-2 uM DNA; BLI: 10 mM Tris pH 7.4, 150 mM NaCl, 25 C, 5 nM DNA; details: protein: recombinant; tags: C-terminal His6 (pHis17); blunt
T2 sequence: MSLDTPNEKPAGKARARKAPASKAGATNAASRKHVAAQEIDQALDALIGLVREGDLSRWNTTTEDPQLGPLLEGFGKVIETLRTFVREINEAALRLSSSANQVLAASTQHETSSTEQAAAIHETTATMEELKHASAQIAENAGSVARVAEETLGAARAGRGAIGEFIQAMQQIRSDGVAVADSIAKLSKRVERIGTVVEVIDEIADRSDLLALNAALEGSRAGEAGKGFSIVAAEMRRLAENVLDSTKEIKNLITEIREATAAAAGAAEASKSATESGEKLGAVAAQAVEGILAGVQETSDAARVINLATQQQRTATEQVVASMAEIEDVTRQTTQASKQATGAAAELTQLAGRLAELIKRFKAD

[8] = target: T3, FrzCDΔH2 (EMSA/SEC-MALS) (Myxococcus xanthus, UniProt P43500 1-417, del84-136); assay: as above; details: protein: recombinant; tags: C-terminal His6 (pHis17); blunt
T3 sequence: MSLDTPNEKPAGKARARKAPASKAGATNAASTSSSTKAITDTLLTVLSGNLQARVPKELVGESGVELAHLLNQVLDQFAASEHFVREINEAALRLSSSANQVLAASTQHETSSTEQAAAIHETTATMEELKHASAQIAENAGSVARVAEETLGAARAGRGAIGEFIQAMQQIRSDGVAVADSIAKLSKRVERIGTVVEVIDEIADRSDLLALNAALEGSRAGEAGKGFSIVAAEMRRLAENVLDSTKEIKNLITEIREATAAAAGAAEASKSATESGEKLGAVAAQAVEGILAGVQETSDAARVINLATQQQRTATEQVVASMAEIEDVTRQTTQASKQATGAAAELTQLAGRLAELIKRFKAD

[9] = target: T4, FrzCDΔH1ΔH2 (EMSA) (Myxococcus xanthus, UniProt P43500 1-417, del32-136); assay: as above; details: protein: recombinant; tags: C-terminal His6 (pHis17); blunt
T4 sequence: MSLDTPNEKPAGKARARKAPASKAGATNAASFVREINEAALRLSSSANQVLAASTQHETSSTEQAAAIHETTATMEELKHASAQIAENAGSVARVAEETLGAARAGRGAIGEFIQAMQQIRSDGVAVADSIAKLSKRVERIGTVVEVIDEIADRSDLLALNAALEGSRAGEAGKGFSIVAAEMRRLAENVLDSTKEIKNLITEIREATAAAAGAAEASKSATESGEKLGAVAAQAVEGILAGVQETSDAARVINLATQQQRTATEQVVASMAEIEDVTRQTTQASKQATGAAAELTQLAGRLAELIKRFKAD

[10] = target: T5, His6-FrzCD (BLI) (Myxococcus xanthus, UniProt P43500 1-417); assay: BLI; EMSA: 50 mM Tris pH 7.4, 50 mM NaCl, 1 mM DTT, 10% glycerol, 25 C, 30 min, 0.5-2 uM DNA; BLI: 10 mM Tris pH 7.4, 150 mM NaCl, 25 C, 5 nM DNA; details: protein: recombinant; tags: N-terminal His6 (pETphos); label: 5' biotin on forward strand; blunt
T5 sequence: T1 sequence

[11] = target: T6, His6-FrzCDΔH1ΔH2 (BLI) (Myxococcus xanthus, UniProt P43500 1-417, del31-136); assay: as above; details: protein: recombinant; tags: N-terminal His6 (pETphos); label: 5' biotin on forward strand; blunt
T6 sequence: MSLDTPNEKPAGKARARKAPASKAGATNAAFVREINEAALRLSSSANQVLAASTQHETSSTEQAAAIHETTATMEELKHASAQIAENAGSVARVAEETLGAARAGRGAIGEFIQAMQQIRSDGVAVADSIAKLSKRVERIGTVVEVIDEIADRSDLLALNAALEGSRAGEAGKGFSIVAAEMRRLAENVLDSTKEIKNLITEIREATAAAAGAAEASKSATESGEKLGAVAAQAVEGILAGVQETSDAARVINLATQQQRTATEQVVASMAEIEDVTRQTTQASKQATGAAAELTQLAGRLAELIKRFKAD

[12] = target: T7, His6-FrzCDΔH2 (BLI) (Myxococcus xanthus, UniProt P43500 1-417, del84-136); assay: as above; details: protein: recombinant; tags: N-terminal His6 (pETphos); label: 5' biotin on forward strand; blunt
T7 sequence: T3 sequence

[13] = target: T1, FrzCD (EMSA/SEC-MALS); assay: EMSA; EMSA: 50 mM Tris pH 7.4, 50 mM NaCl, 1 mM DTT, 10% glycerol, 25 C, 30 min, 0.5-2 uM DNA; BLI: 10 mM Tris pH 7.4, 150 mM NaCl, 25 C, 5 nM DNA; details: protein: recombinant, tags: C-terminal His6 (pHis17), chain copies: 2

- stoichiometry N [1]: 4
Molecule: FrzCD^ΔH2 (from UniProt P43500 1-417) (receptor)

- stoichiometry N [2]: 2
- stoichiometry N [3]: 2
Molecule: FrzCD^ΔMA (from UniProt P43500 1-136) (domain or fragment)

- stoichiometry N [4]: 4
Molecule: FrzCD^ΔH1ΔH2 (from UniProt P43500 1-417) (receptor)

B1: FrzCD full-length (receptor, Myxococcus xanthus, UniProt P43500 1-417, looked up)
chain: T1 sequence
notes: FrzCD, cytoplasmic methyl-accepting chemotaxis protein of Myxococcus xanthus; DB 1-30, H1 31-83, H2 84-136, MA 137-417; The C-terminal hexa-histidine tag is that of the pHis17 constructs; also called His6-FrzCD; wild type; source: E. coli (BL21-AI, BL21-DE3 or C43), purified (HisTrap, ion exchange)
- stoichiometry N [5]: 2

B2: 35 bp DNA (dsDNA)
DNA 1: GTCACCTGCTCTAGCTAATAGACTGAGCCGAGGTG
DNA 2: CACCTCGGCTCAGTCTATTAGCTAGAGCAGGTGAC
- binding result [6]: binds
- binding result [7]: binds
- binding result [8]: binds
- binding result [9]: binds

B3: 178 bp DNA (dsDNA)
DNA 1: GGATCGCATCTGCCTACATCCCCAGCTCCCGGTCGGTCCGCTCGGAACCTAGCCCGGGTCAAAGACCCGGGGTCTATGTTGACCCATTTGGTGGGGATGGGTCTAATTGGACCTGGCGTTTTTTCGCGCCATGGAAATGTCAAGGCCCGTGATTCCAGACTGTTGGGCAGGGAGTT
DNA 2: AACTCCCTGCCCAACAGTCTGGAATCACGGGCCTTGACATTTCCATGGCGCGAAAAAACGCCAGGTCCAATTAGACCCATCCCCACCAAATGGGTCAACATAGACCCCGGGTCTTTGACCCGGGCTAGGTTCCGAGCGGACCGACCGGGAGCTGGGGATGTAGGCAGATGCGATCC
- Kd [10]: 650 nM
- Kd [11]: 210 nM
- Kd [12]: 1730 nM

B4: FrzCD^ΔH1 (receptor, Myxococcus xanthus, UniProt P43500 1-417, looked up)
chain: MSLDTPNEKPAGKARARKAPASKAGATNAARKHVAAQEIDQALDALIGLVREGDLSRWNTTTEDPQLGPLLEGFGKVIETLRTFVREINEAALRLSSSANQVLAASTQHETSSTEQAAAIHETTATMEELKHASAQIAENAGSVARVAEETLGAARAGRGAIGEFIQAMQQIRSDGVAVADSIAKLSKRVERIGTVVEVIDEIADRSDLLALNAALEGSRAGEAGKGFSIVAAEMRRLAENVLDSTKEIKNLITEIREATAAAAGAAEASKSATESGEKLGAVAAQAVEGILAGVQETSDAARVINLATQQQRTATEQVVASMAEIEDVTRQTTQASKQATGAAAELTQLAGRLAELIKRFKAD
notes: FrzCD of Myxococcus xanthus with the HAMP1 domain (H1, residues 31 to 83) deleted; The limits of the deletion are the printed limits of the domain; The tag is that of the pHis17 constructs; source: E. coli (BL21-AI, BL21-DE3 or C43), purified (HisTrap, ion exchange)
- stoichiometry N [5]: 4

B5: 8 bp DNA (dsDNA)
DNA 1: ACTGCAGT
DNA 2: ACTGCAGT
- binding result ([13]; blunt): binds

Molecule: AAAAAAAA (ssDNA) [8-base poly-A ssDNA]
- binding result [13]: binds
